From article PMC10878242

Biological target: mAb-1E7
Test: SPR; Biacore 8K; mAb-1E7 immobilized on a Protein G chip; PCV2-Cap or Nb61 injected at 30 µL/min, 1.5625 to 25 nM; 10 mM HEPES pH 7.4, 150 mM NaCl, 3 mM EDTA, 0.05% Tween 20

Sequence of mAb-1E7 (heavy, as listed by the source, chain 1 of 2): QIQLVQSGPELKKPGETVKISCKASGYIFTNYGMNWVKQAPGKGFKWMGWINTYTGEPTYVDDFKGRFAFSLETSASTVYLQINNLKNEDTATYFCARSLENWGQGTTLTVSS
Sequence of mAb-1E7 (light, as listed by the source, chain 2 of 2): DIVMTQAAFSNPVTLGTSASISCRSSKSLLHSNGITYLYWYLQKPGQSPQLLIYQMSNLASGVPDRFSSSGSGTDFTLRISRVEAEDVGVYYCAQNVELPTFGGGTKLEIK

B1: Nb61 (VHH)
VHH: QVQLQESGGGSVQAGGSLRLSCAGSDFPYCSYDMSWYRQAPGKEREFVSGIDRDGTIRYADAVKGRFTISQGDAKNTLYLQMNSLKPEDTAMYYCKTTPRNYNDFLGCVDYWGQGTQVTVSS
Kd: 0.012 µM | koff: 0.0222 s⁻¹ | kon: 1.86e+06 M⁻¹ s⁻¹
